# Experimental data from patent publication US20090286243A1 (CEDARS SINAI MEDICAL CENTER, published 2009).
# T1: wild type human Kv3.3 (KCNC3) voltage-gated potassium channel subunit (human, UniProt Q14003 1-757)
# T1 sequence: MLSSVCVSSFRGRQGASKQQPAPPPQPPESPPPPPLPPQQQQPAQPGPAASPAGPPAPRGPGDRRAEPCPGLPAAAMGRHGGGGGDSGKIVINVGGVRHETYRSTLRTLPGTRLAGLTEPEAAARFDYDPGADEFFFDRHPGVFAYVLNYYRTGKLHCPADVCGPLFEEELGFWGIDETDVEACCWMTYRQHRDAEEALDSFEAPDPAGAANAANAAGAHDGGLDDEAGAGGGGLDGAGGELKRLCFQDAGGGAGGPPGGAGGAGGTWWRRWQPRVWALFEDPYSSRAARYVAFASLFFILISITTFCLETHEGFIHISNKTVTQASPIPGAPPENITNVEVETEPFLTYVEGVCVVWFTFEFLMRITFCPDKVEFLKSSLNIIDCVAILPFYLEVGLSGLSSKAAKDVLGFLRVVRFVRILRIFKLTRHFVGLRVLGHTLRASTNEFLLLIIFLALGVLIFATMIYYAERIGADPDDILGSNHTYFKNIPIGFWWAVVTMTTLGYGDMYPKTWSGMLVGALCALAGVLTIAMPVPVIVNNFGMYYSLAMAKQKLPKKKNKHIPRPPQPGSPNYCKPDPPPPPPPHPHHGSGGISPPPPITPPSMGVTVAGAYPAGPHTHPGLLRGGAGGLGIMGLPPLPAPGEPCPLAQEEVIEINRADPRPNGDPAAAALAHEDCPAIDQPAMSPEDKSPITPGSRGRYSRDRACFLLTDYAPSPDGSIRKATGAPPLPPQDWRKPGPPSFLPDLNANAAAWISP
# Target: T1, wild type human Kv3.3 (KCNC3) …
# Test: cell-based or functional assay
Binder,"current amplitudes measured at +60 mV, 1:1 expression ratio of wild type and R423H, Xenopus oocytes","current amplitudes, 1:1 expression ratio of wild type and R366H, Xenopus oocytes"
Kv3.3 R423H mutant subunit (other) MLSSVCVSSFRGRQGASKQQPAPPPQPPESPPPPPLPPQQQQPAQPGPAASPAGPPAPRGPGDRRAEPCPGLPAAAMGRHGGGGGDSGKIVINVGGVRHETYRSTLRTLPGTRLAGLTEPEAAARFDYDPGADEFFFDRHPGVFAYVLNYYRTGKLHCPADVCGPLFEEELGFWGIDETDVEACCWMTYRQHRDAEEALDSFEAPDPAGAANAANAAGAHDGGLDDEAGAGGGGLDGAGGELKRLCFQDAGGGAGGPPGGAGGAGGTWWRRWQPRVWALFEDPYSSRAARYVAFASLFFILISITTFCLETHEGFIHISNKTVTQASPIPGAPPENITNVEVETEPFLTYVEGVCVVWFTFEFLMRITFCPDKVEFLKSSLNIIDCVAILPFYLEVGLSGLSSKAAKDVLGFLRVVRFVRILHIFKLTRHFVGLRVLGHTLRASTNEFLLLIIFLALGVLIFATMIYYAERIGADPDDILGSNHTYFKNIPIGFWWAVVTMTTLGYGDMYPKTWSGMLVGALCALAGVLTIAMPVPVIVNNFGMYYSLAMAKQKLPKKKNKHIPRPPQPGSPNYCKPDPPPPPPPHPHHGSGGISPPPPITPPSMGVTVAGAYPAGPHTHPGLLRGGAGGLGIMGLPPLPAPGEPCPLAQEEVIEINRADPRPNGDPAAAALAHEDCPAIDQPAMSPEDKSPITPGSRGRYSRDRACFLLTDYAPSPDGSIRKATGAPPLPPQDWRKPGPPSFLPDLNANAAAWISP,~20 % of wild type expressed alone,–
Kv3.3 R366H mutant subunit (other) MLSSVCVSSFRGRQGASKQQPAPPPQPPESPPPPPLPPQQQQPAQPGPAASPAGPPAPRGPGDRRAEPCPGLPAAAMGRHGGGGGDSGKIVINVGGVRHETYRSTLRTLPGTRLAGLTEPEAAARFDYDPGADEFFFDRHPGVFAYVLNYYRTGKLHCPADVCGPLFEEELGFWGIDETDVEACCWMTYRQHRDAEEALDSFEAPDPAGAANAANAAGAHDGGLDDEAGAGGGGLDGAGGELKRLCFQDAGGGAGGPPGGAGGAGGTWWRRWQPRVWALFEDPYSSRAARYVAFASLFFILISITTFCLETHEGFIHISNKTVTQASPIPGAPPENITNVEVETEPFLTYVEGVCVVWFTFEFLMHITFCPDKVEFLKSSLNIIDCVAILPFYLEVGLSGLSSKAAKDVLGFLRVVRFVRILRIFKLTRHFVGLRVLGHTLRASTNEFLLLIIFLALGVLIFATMIYYAERIGADPDDILGSNHTYFKNIPIGFWWAVVTMTTLGYGDMYPKTWSGMLVGALCALAGVLTIAMPVPVIVNNFGMYYSLAMAKQKLPKKKNKHIPRPPQPGSPNYCKPDPPPPPPPHPHHGSGGISPPPPITPPSMGVTVAGAYPAGPHTHPGLLRGGAGGLGIMGLPPLPAPGEPCPLAQEEVIEINRADPRPNGDPAAAALAHEDCPAIDQPAMSPEDKSPITPGSRGRYSRDRACFLLTDYAPSPDGSIRKATGAPPLPPQDWRKPGPPSFLPDLNANAAAWISP,–,~50 % of wild type expressed alone
